Test results: patent publication US9493781B2, “Synthetic brassica-derived chloroplast transit peptides” (DOW AGROSCIENCES LLC, priority 2012, dated 2016)

What was measured:
Zea mays = assay: Post-emergence glyphosate tolerance of dgt-28 transformed T0 corn; assay type: in vivo
Procedure: Herbicide Tolerance in dgt-28 Transformed Corn. Zea mays dgt-28 transformation events (T0) were allowed to acclimate in the greenhouse and were grown until plants had transitioned from tissue culture to greenhouse growing conditions (i.e., 2-4 new, normal looking leaves had emerged from the whorl). Plants were grown at 27° C. under 16 hour light: 8 hour dark conditions in the greenhouse. The plants were then treated with commercial formulations of DURANGO DMA™ (containing the herbicide glyphosate) with the addition of 2% w/v ammonium-sulfate. Herbicide applications were made with a track sprayer at a spray volume of 187 L/ha, 50-cm spray height. T0 plants were sprayed with a range of glyphosate from 280-4480 g ae/ha glyphosate, which is capable of significant injury to untransformed corn lines. A lethal dose is defined as the rate that causes >95% injury to the B104 inbred.
Post-Emergence Herbicide Tolerance in dgt-28 Transformed T0 Corn. T0 events of dgt-28 linked with TraP4, TraP5, TraP8 and TraP23 were generated by Agrobacterium transformation and were allowed to acclimate under controlled growth chamber conditions until 2-4 new, normal looking leaves had emerged from the whorl. Plants were assigned individual identification numbers and sampled for copy number analyses of both dgt-28 and aad-1. Based on copy number analyses, plants were selected for protein expression analyses. […]

[1] = test system: tobacco (cv. Petit Havana); assay: Postemergence glyphosate tolerance of dgt-28 transformed T1 and T2 tobacco; assay type: in vivo; conditions: 14 DAT, 2240 g ae/ha glyphosate (DURANGO DMA)
Description: Postemergence herbicide tolerance in dgt-28 transformed T1 tobacco. T1 resistant plants from each event used in the progeny testing were given unique identifiers and sampled for zygosity analyses of the dgt-28 gene. Zygosity data were used to assign 2 hemizygous and 2 homozygous replicates to each rate of glyphosate applied allowing for a total of 4 replicates per treatment. These plants were compared against wildtype Petite havana tobacco. All plants were sprayed with a track sprayer set at 187 L/ha. The plants were sprayed from a range of 560-4480 g ae/ha DURANGO DMA™. All applications were formulated in water with the addition of 2% w/v ammonium sulfate (AMS). Plants were evaluated at 7 and 14 days after treatment. Plants were assigned an injury rating with respect to overall visual stunting, chlorosis, and necrosis. The T1 generation is segregating, so some variable response is expected due to difference in zygosity.
Rates of DURANGO DMA™ ranging from 420-3360 g ae/ha glyphosate were applied to 2-3 leaf tobacco as previously described.

[2] = test system: chloroplasts of tobacco cells; assay: Tobacco transient assay: confocal microscopy of TraP-YFP localization; assay type: cell-based, Nicotiana benthamiana; conditions: Agrobacterium-infiltrated tobacco leaves
Description: The Trap8 and TraP9 chimeric chloroplast transit peptide sequences were initially tested via a transient in planta assay. Polynucleotide sequences which encode the Trap8 (SEQ ID NO:5) and TraP9 (SEQ ID NO:6) chimeric chloroplast transit peptide sequences were synthesized. A linker sequence (SEQ ID NO:7) was incorporated between the TraP sequence and the yfp coding sequence. The resulting constructs contained two plant transcription units (PTU). The first PTU was comprised of the Arabidopsis thaliana Ubiquitin 10 promoter (AtUbi10 promoter; Callis, et al., (1990) J. Biol. Chem., 265: 12486-12493), TraP-yellow fluorescent protein fusion gene (TraP-YFP; US Patent App. 2007/0298412), and Agrobacterium tumefaciens ORF 23 3′ untranslated region (AtuORF23 3′UTR; U.S. Pat. No. 5,428,147). […]
Agrobacterium-infiltrated tobacco leaves were severed from the plant, and placed into a petri-dish with water to prevent dehydration. The infiltrated tobacco leaves were observed under blue light excitation with long-pass filter glasses held in place using a Dark Reader Hand Lamp™ (Clare Chemical Research Co.; Dolores, Colo.) to identify undamaged areas of the leaf that were successfully expressing the YFP reporter proteins. […]

YFP protein = assay: Western blot of infiltrated tobacco leaves (YFP expression, transit peptide processing); set-up: species or system Nicotiana benthamiana; conditions: infiltrated tobacco leaf tissue
Procedure: Samples of the infiltrated tobacco plants were assayed via Western blotting. Leaf punches were collected and subjected to bead-milling. About 100-200 mg of leaf material was mixed with 2 BBs (steel balls) (Daisy; Rogers, Ark.) and […] of PBST for 3 minutes in a Kleco™ bead mill. The samples were then spun down in a centrifuge at 14,000×g at 4° C. The supernatant was removed and either analyzed directly via Western blot or immunoprecipitated. The immunoprecipitations were performed using the Pierce Direct IP Kit™ (Thermo Scientific; Rockford, Ill.) following the manufacturer's protocol. Approximately, 50 μg of anti-YFP was bound to the resin. The samples were incubated with the resin overnight at 4° C. Next, the samples were washed and eluted the following morning and prepped for analysis by combining equal volumes of 2×8M Urea sample buffer and then boiling the samples for 5 minutes. The boiled samples were run on a 4-12% SDS-Bis Tris gel in MOPS buffer for 40 minutes. The gel was then blotted using the Invitrogen iBlot™ (Life Technologies; Carlsbad, Calif.) following the manufacturer's protocol. The blotted membrane was blocked for 10 minutes using 5% non-fat dry milk in PBS-Tween solution. The membrane was probed with the primary antibody (monoclonal anti-GFP in rabbit) used at a 1:1000 dilution in the 5% non-fat dry milk in PBS-Tween solution for 1 hour. […]

## O=C(O)CNCP(=O)(O)O [glyphosate]
Zea mays
  Glyphosate rate that controlled non-transformed plants: ≥ 280 g ae/ha

B1: TraP23: chloroplast transit peptide TraP23 v2, SEQ ID NO:39 (protein)
chain: MAQINKSANGVRNASLISNFSNTRQAKSPFSLSCGTRLKNSSRGLKKVAVRLIGSRVKVSAS
modifications: Chloroplast Transit Peptide
[1]
  % Injury Ave: 9.5%

B2: TraP9: chimeric chloroplast transit peptide SEQ ID NO:4; N-terminus from Brassica rapa EPSPS CTP, C-terminus from Brassica napus (protein)
chain: MAQASRICQNPCVISNLPKSNHRKSPFSVSLKTHQPRASSWGLKKSGTMLNGSVIRPVKVTASVS
modifications: TraP9 chimeric chloroplast transit peptide
notes: N-terminus from Brassica rapa EPSPS CTP, C-terminus from Brassica napus
[2]
  Localization of YFP fluorescence in tobacco leaf cells: accumulated within the chloroplasts
YFP protein
  Processing (cleavage) of transit peptide from YFP by Western blot: processed
